# Experimental data taken from article PMC6695731, “Application of a Substrate-Mediated Selection with c-Src Tyrosine Kinase to a DNA-Encoded Chemical Library” (Molecules, 2019).
# Read-outs that look alike come from different tables or passages of the source.
# What was measured:
# [1] = target: T1, c-Src (Homo sapiens, UniProt P12931); test: ADP-Glo assay of compounds as c-Src substrates (ADP production); assay type: biochemical; settings: for Km / Vmax: Table S3, ADP-Glo assay of SrcDEL10 derivatives, enzyme Src; for activity as substrate in ADP-Glo assay (words): SrcDEL10 derivatives compared with parental compound
# Description: (§1) Hit molecules were initially characterized as substrates for c-Src using the luciferase-based ADP-Glo assay (Promega). All six molecules appeared to be efficient substrates for Src kinase.
# (§2) Kinase reaction was performed as follows 1x kinase buffer (25 mM Tris-HCl (pH 7.5), 2 mM dithiothreitol (DTT), 0.1 mM Na3VO4, 10 mM MgCl2), 1 mM ATP, different concentrations (1 μM to 100 μM) of substrates (either off DNA or on DNA hit molecules), and 12 nM rSrc by incubation for 2 h at 30 °C. After that, distinct 55mers were annealed to each kinase reaction, as previously described. The annealed reactions were incubated with anti Pho-Tyr loaded protein G magnetic bead at RT for 30 min. After washing by three times 20 μL 1xPBST with 1 mg/mL BSA, 1 mg/mL tRNAs), the captured samples were eluted by 20 μL of 1 mM phenylphosphate. The resulting supernatant was then used as a template in qPCR.
# (§3) After the kinase reaction was performed as previous section, the reaction mixture (5 μL) was incubated with 5 µL of ADP-Glo™ reagent at RT for 40 min and then add 10 µL of kinase detection reagent at RT for 1 h. The luminescence was measure by plate reader.
# [2] = tested on: c-Src; settings: cited from earlier work
# [3] = tested on: NC(=O)CN(CCc1ccc(O)cc1)C(=O)[C@H](CC(=O)O)NC(=O)c1cccc(CN(CC2CC2)C(=O)CCO)c1; test: ADP-Glo assay of compounds as c-Src substrates (ADP production); assay type: biochemical; settings: other: Table S3, ADP-Glo assay of SrcDEL10 derivatives, enzyme Src; pH 7.5; 30.0 °C
# Description: as §1, §2, §3
# [4] = tested on: NC(=O)C1Cc2ccc(O)cc2CN1C(=O)C(CC(=O)O)NC(=O)c1ccc(CN(CC2CC2)C(=O)CCO)cc1; test: as above; assay type: biochemical; settings: other: Table S3, ADP-Glo assay of SrcDEL10 derivatives, enzyme Src; pH 7.5; 30.0 °C
# Description: as §1, §2, §3
# [5] = tested on: NC(=O)CN(CCCCCCO)C(=O)c1ccc(CNC(=O)[C@H](Cc2ccc(O)cc2)NC(=O)CCc2ccc(O)cc2)cc1; test: as above; assay type: biochemical; settings: other: ADP-Glo assay, compound as substrate of c-Src; pH 7.5; 30.0 °C
# Description: as §1, §2, §3
# [6] = tested on: NC(=O)C(Cc1ccc(O)cc1)NC(=O)CN(CCCCCCO)C(=O)C1Cc2ccccc2N1C(=O)CCc1ccc(O)cc1; test: as above; assay type: biochemical; settings: other: ADP-Glo assay, compound as substrate of c-Src; pH 7.5; 30.0 °C
# Description: as §1, §2, §3
# [7] = tested on: NC(=O)CN(CCc1ccc(O)cc1)C(=O)[C@H](CC(=O)O)NC(=O)c1ccc(CN(CC2CC2)C(=O)CCO)cc1; test: as above; assay type: biochemical; settings: other: ADP-Glo assay, compound as substrate of c-Src; pH 7.5; 30.0 °C
# Description: as §1, §2, §3
# [8] = tested on: NC(=O)CN(CCc1ccc(O)cc1)C(=O)[C@H](CCC(=O)O)NC(=O)c1ccc(CN(CC2CC2)C(=O)CCO)cc1; test: as above; assay type: biochemical; settings: other: Table S3, ADP-Glo assay of SrcDEL10 derivatives, enzyme Src; pH 7.5; 30.0 °C
# Description: as §1, §2, §3
# [9] = tested on: N=C(N)NCCC[C@H](NC(=O)CN(Cc1ccco1)C(=O)CCO)C(=O)N(CCc1ccc(O)cc1)Cc1ccc(C(N)=O)cc1; test: as above; assay type: biochemical; settings: other: ADP-Glo assay, compound as substrate of c-Src; pH 7.5; 30.0 °C
# Description: as §1, §2, §3
# [10] = tested on: NC(=O)[C@H](Cc1ccc(O)cc1)NC(=O)[C@H](CC(=O)O)NC(=O)c1ccc(CN(CC2CC2)C(=O)CCO)cc1; test: as above; assay type: biochemical; settings: other: Table S3, ADP-Glo assay of SrcDEL10 derivatives, enzyme Src; pH 7.5; 30.0 °C
# Description: as §1, §2, §3
# [11] = tested on: C[C@H](NC(=O)c1ccc(CN(CC2CC2)C(=O)CCO)cc1)C(=O)N(CCc1ccc(O)cc1)CC(N)=O; test: as above; assay type: biochemical; settings: other: Table S3, ADP-Glo assay of SrcDEL10 derivatives, enzyme Src; pH 7.5; 30.0 °C
# Description: as §1, §2, §3
# [12] = tested on: NC(=O)C(Cc1cccnc1)NC(=O)CN(CCc1ccc(O)cc1)C(=O)C1Cc2c([nH]c3ccccc23)CN1C(=O)CCO; test: as above; assay type: biochemical; settings: other: ADP-Glo assay, compound as substrate of c-Src; pH 7.5; 30.0 °C
# Description: as §1, §2, §3
# [13] = tested on: NC(=O)[C@H](Cc1cccnc1)NC(=O)CN(CC1CC1)C(=O)CCc1ccc(O)cc1; test: as above; assay type: biochemical; settings: other: ADP-Glo assay, compound as substrate of c-Src; pH 7.5; 30.0 °C
# Description: as §1, §2, §3
# [14] = tested on: O=C(O)C[C@H](NC(=O)c1ccc(CN(CC2CC2)C(=O)CCO)cc1)C(=O)NCCc1ccc(O)cc1; test: as above; assay type: biochemical; settings: other: Table S3, ADP-Glo assay of SrcDEL10 derivatives, enzyme Src; pH 7.5; 30.0 °C
# Description: as §1, §2, §3
# [15] = tested on: NC(=O)CN(CCc1ccccc1)C(=O)[C@H](CC(=O)O)NC(=O)c1ccc(CN(CC2CC2)C(=O)CCO)cc1; test: as above; assay type: biochemical; settings: pH 7.5, 30.0 °C
# Description: as §1, §2, §3
# [16] = target: T1, c-Src; test: NADH-based coupled enzyme assay detecting ADP generation; assay type: biochemical; settings: 1 mM ATP, 100 µM compound, 12 nM Src, 30 °C, 3 h
# Description: To confirm this, compounds were tested with an NADH-based, coupled enzyme assay that also detects ADP generation. […] This additionally supported that the ADP-Glo activity observed was due to activation of ATP hydrolysis and not phosphotransfer to these compounds.
# Kinase reaction was performed as follows 1x kinase buffer (25 mM Tris-HCl (pH 7.5), 2 mM dithiothreitol (DTT), 0.1 mM Na3VO4, 10 mM MgCl2), 1 mM ATP, 100 μM peptides and 12 nM Src at 30 °C for 3 h. The kinase reaction mixture was incubated with 30 unit/mL lactic dehydrogenase (LDH), 20 unit/mL pyruvate kinase (PK), 2 mM phosphoenolpyruvate (PEP), and 1 mM NADH. The absorbance of NADH was monitored at 340 nm.
# Figure S8. NADH Coupled Assay of Hit Molecules with c-Src. Samples were composed of 1 mM ATP,
# 100 µM putative substrate molecules, and 12 nM c-Src kinase at 30 C for 3 hours. Full method description
# is provided in Methods and Materials 4.6 NADH assay.
# [17] = target: T1, c-Src; test: radiolabel (32P-ATP) inhibition assay of LYNtide phosphorylation by c-Src; assay type: biochemical; settings: 32P-ATP 50 µM, biotinylated-LYNtide 50 µM
# Description: The original six off-DNA hits were tested for inhibition of c-Src activity. For these tests, we used ^32P-ATP as a substrate and detected phosphorylation levels of a biotinylated-LYNtide substrate after adsorption to streptavidin coated membranes. This assay should not be affected by activation of ATP hydrolysis or phosphotransfer to the small molecules. […] There was no apparent correlation of these values to the Km or kcat values in the prior assays as substrates.
# Each hit molecule was preincubated with 1.2 nM c-Src at 30 °C for 30 min. The kinase reaction was initiated with the addition of 50 μM LYNtide and 50 μM ATP with 0.15 μCi gamma ^32P ATP at 30 °C for 10 min. The kinase reaction samples (2 µL) were spotted on P81 filter paper consisting of 1.5 cm squares. After air dry, the P81 papers were washed 4 times with 0.5% phosphoric acid for 5 min each. The P81 papers were washed one time with acetone for 5 min. The papers were then allowed to air dry for about 20 min. The dried P81 papers were analyzed by liquid scintillation counter.
# Figure 6 Inhibition of hit molecules in a radiolabel assay with ^32P-ATP (50 µM) and biotinylated-LYNtide (50 µM) as substrates.
# [18] = c-Src substrates lacking acidic residues, Lam and coworkers
# [19] = other: Table S3, ADP-Glo assay of SrcDEL10 derivatives, enzyme Src
# [20] = optimal natural peptide sequence for c-Src, reference not given
compound,measurement,setting,value
CC(=O)N(Cc1ccc(C(=O)N[C@@H](CC(=O)O)C(=O)N(CCc2ccc(O)cc2)CC(N)=O)cc1)CC1CC1 [Src 10-9],Km,[1],> 100 µM
O=C(O)C[C@H](NC(=O)c1ccc(CN(CC2CC2)C(=O)CCO)cc1)C(=O)NCCc1ccc(O)cc1 [Src 10-3],Vmax,[1],0.382 µM/min
GIYWHHY [efficient c-Src peptide substrate lacking acidic residues],Km,[2]; [18],21 µM
NC(=O)CN(Cc1cccc(O)c1)C(=O)[C@H](CC(=O)O)NC(=O)c1ccc(CN(CC2CC2)C(=O)CCO)cc1 [Src 10-10],Km,[1],> 100 µM
c-Src (Homo sapiens),Km,[3],9.68 µM
same,kcat,[3],44. 66 1/min
same,kcat/Km,[3],4. 61 1/min/uM
same,Km,[4],15.4 µM
same,kcat,[4],122. 8 1/min
same,kcat/Km,[4],7. 95 1/min/uM
same,Km,[5],13 µM
same,kcat,[5],0.75 s⁻¹
same,kcat/Km,[5],55000 M⁻¹ s⁻¹
same,Km,[6],18 µM
same,kcat,[6],0.533 s⁻¹
same,kcat/Km,[6],30000 M⁻¹ s⁻¹
same,Km,[7],18 µM
same,kcat,[7],1.37 s⁻¹
same,kcat/Km,[7],76700 M⁻¹ s⁻¹
same,Km,[8],20.7 µM
same,kcat,[8],92. 84 1/min
same,kcat/Km,[8],4. 49 1/min/uM
same,Km,[9],19 µM
same,kcat,[9],2.5 s⁻¹
same,kcat/Km,[9],130000 M⁻¹ s⁻¹
same,Km,[10],4.37 µM
same,kcat,[10],89. 33 1/min
same,kcat/Km,[10],20. 56 1/min/uM
same,Km,[11],4.31 µM
same,kcat,[11],0.683 s⁻¹
same,kcat/Km,[11],9. 52 1/min/uM
same,Km,[12],33 µM
same,kcat,[12],5.83 s⁻¹
same,kcat/Km,[12],183000 M⁻¹ s⁻¹
same,Km,[13],28 µM
same,kcat,[13],1.43 s⁻¹
same,kcat/Km,[13],50000 M⁻¹ s⁻¹
same,Km,[14],3.79 µM
same,kcat,[14],24. 21 1/min
same,kcat/Km,[14],6. 39 1/min/uM
same,kcat/Km,[15]; other: ADP-Glo assay,6.9 min⁻¹ µM⁻¹
same,Km,[15]; [19],21.1 µM
same,kcat,[15]; [19],144. 9 1/min
same,kcat/Km,[15]; [19],6. 86 1/min/uM
NC(=O)CN(CCc1ccccc1)C(=O)[C@H](CC(=O)O)NC(=O)c1ccc(CN(CC2CC2)C(=O)CCO)cc1 [Src 10-6],activity as substrate in ADP-Glo assay (words),[1],comparable substrate to the parental compound
CCCN(Cc1ccc(C(=O)N[C@@H](CC(=O)O)C(=O)N(CCc2ccc(O)cc2)CC(N)=O)cc1)C(=O)CCO [Src 10-8],activity as substrate in ADP-Glo assay (words),[1]; listed as 10–8,lacked activity altogether
same,activity as substrate in ADP-Glo assay (words),[1]; listed as Src-10-8,No activity
same,Km,[1],> 100 µM
NC(=O)CN(CCCCCCO)C(=O)c1ccc(CNC(=O)[C@H](Cc2ccc(O)cc2)NC(=O)CCc2ccc(O)cc2)cc1 [SrcDEL14],ADP generation relative to compound,[16],little turnover
same,IC50,[17],18 µM
NC(=O)C(Cc1ccc(O)cc1)NC(=O)CN(CCCCCCO)C(=O)C1Cc2ccccc2N1C(=O)CCc1ccc(O)cc1 (centres unmarked) [SrcDEL16],ADP generation relative to compound,[16],little turnover
same,IC50,[17],26 µM
NC(=O)[C@H](Cc1cccnc1)NC(=O)CN(CC1CC1)C(=O)CCc1ccc(O)cc1 [SrcDEL21],ADP generation relative to compound,[16],large molar excess
EEEIYGIFG,Km,[2]; [20],14 µM
same,kcat,[2]; [20],2.9 s⁻¹
NC(=O)CN(CCc1ccc(O)cc1)C(=O)[C@H](CC(=O)O)NC(=O)c1cccc(CN(CC2CC2)C(=O)CCO)c1 [Src 10-4],Vmax,[1],0.54 µM/min
N=C(N)NCCC[C@H](NC(=O)CN(Cc1ccco1)C(=O)CCO)C(=O)N(CCc1ccc(O)cc1)Cc1ccc(C(N)=O)cc1 [SrcDEL8],ADP generation relative to compound,[16],large molar excess
same,IC50,[17],96 µM
YIYGSFK [efficient c-Src peptide substrate lacking acidic residues],Km,[2]; [18],55 µM
C[C@H](NC(=O)c1ccc(CN(CC2CC2)C(=O)CCO)cc1)C(=O)N(CCc1ccc(O)cc1)CC(N)=O [Src 10-2],Vmax,[1],0.492 µM/min
NC(=O)C(Cc1cccnc1)NC(=O)CN(CCc1ccc(O)cc1)C(=O)C1Cc2c([nH]c3ccccc23)CN1C(=O)CCO (centres unmarked) [SrcDEL5],ADP generation relative to compound,[16],large molar excess
same,IC50,[17],64 µM
